Positions count from the first letter of the chain named. In names and notes the source's numbering stands.
How the values were obtained:
[1] = molecular target: T1, FcγRIa (human, UniProt P12314 16-292); assay: SPR (Biacore), captured antibody, soluble FcγR
T1 construct: Whole entry named; also called FcgRIa; CD64A

[2] = molecular target: T2, FcγRIIa type R (human, UniProt P12318 34-217); assay: SPR (Biacore), captured antibody, soluble FcγR
T2 chain: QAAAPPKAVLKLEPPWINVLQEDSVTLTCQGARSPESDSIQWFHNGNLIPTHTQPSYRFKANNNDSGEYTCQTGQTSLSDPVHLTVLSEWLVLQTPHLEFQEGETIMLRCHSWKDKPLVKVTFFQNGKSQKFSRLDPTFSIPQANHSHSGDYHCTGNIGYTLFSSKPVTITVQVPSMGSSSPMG

[3] = molecular target: T3, FcγRIIb (human, UniProt P31994 43-217); assay: SPR (Biacore), captured antibody, soluble FcγR
T3 construct: extracellular domain; also called FcgRIIb; CD32B
T3 sequence (looked up): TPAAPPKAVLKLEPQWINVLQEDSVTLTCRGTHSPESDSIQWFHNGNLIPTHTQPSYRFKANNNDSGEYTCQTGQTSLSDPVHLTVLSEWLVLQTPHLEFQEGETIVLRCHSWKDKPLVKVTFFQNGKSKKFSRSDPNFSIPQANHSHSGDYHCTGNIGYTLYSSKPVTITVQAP

[4] = molecular target: T4, FcγRIa extracellular domain with C-terminal His tag (human, UniProt P12314 16-292); assay: SPR, captured antibody, FcgR analyte
T4 construct: also called FcgRIa
T4 sequence (P12314 16-292): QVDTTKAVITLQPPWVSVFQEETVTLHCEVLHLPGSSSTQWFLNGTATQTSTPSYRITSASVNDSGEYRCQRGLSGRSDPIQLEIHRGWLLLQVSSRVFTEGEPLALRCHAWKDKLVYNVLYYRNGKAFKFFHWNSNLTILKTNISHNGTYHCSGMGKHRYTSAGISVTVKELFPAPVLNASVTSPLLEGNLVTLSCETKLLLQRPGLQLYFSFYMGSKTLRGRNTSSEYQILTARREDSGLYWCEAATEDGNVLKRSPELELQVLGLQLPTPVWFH
Method: (§1) Relative binding activities were calculated for the results of analyzing interactions with the respective FcγRs according to the following method.

[5] = molecular target: T5, FcγRIIb extracellular domain with C-terminal His tag (human, UniProt P31994 43-217); assay: SPR, captured antibody, FcgR analyte
T5 construct: extracellular domain; also called FcgRIIb
T5 sequence (looked up): T3 sequence (looked up)
Method: as §1

[6] = molecular target: T2, FcγRIIa type R; assay: SPR (Biacore); parent = IL6R-B3/IL6R-L
[7] = molecular target: T3, FcγRIIb; assay: SPR (Biacore); parent = IL6R-B3/IL6R-L

T1 sequence (P12314 16-292): as above

B1: IL6R-BP426/IL6R-L (antibody, human IgG1, kappa)
heavy: QVQLQESGPGLVKPSETLSLTCAVSGHSISHDHAWSWVRQPPGEGLEWIGFISYSGITNYNPSLQGRVTISRDNSKNTLYLQMNSLRAEDTAVYYCARSLARTTAMDYWGEGTLVTVSSASTKGPSVFPLAPSSKSTSGGTAALGCLVKDYFPEPVTVSWNSGALTSGVHTFPAVLQSSGLYSLSSVVTVPSSSLGTQTYICNVNHKPSNTKVDKKVEPKSCDKTHTCPPCPAPDLLGDDSVFLFPPKPKDTLMISRTPEVTCVVVDVAEDDGEVKFNWYVDGVEVHNAKTKPREEQYNSTYRVVSVLTVLHQDWLNGKEYKCKVSNKALPRPIEKTISKAKGQPREPQVYTLPPSRDELTKNQVSLTCLVKGFYPSDIAVEWESNGQPENNYKTTPPVLDSDGSFFLYSKLTVDKSRWQQGNVFSCSVMHEALHNHYTQESLSLSP
light: not shown
notes: Alterations in EU numbering, introduced into IL6R-B3
Kd [1]: 1 nM

B2: IL6R-BP535/IL6R-L (antibody, human IgG1, kappa)
heavy: B1 heavy with V266I, A269G, D271E, Y298D, A329G, P398M
light: not shown
notes: as for B1
Kd [2]: 92 nM
Kd [3]: 4 nM
Kd [1]: 11 nM

B3: IL6R-BP129/IL6R-L (antibody, human IgG1, kappa)
heavy: B1 heavy with D239G, A269S, E270H, D271E, G273P, Y298D, R332K
light: not shown
relative binding activity [4]: 68 relative (IL6R-BF648/IL6R-L = 100)
relative binding activity [5]: 138 relative (IL6R-BF648/IL6R-L = 100)

B4: IL6R-BP184/IL6R-L (antibody, human IgG1, kappa)
heavy: B1 heavy with D239G, A269S, E270H, D271E, R332K
light: not shown
relative binding activity [4]: 96 relative (IL6R-BF648/IL6R-L = 100)
relative binding activity [5]: 171 relative (IL6R-BF648/IL6R-L = 100)

B5: IL6R-BP480/IL6R-L (antibody, human IgG1, kappa)
heavy: B1 heavy with V268L, A269S, R332A
light: not shown
notes: as for B1
Kd [2]: 6300 nM
Kd [3]: 200 nM

B6: IL6R-BP532/IL6R-L (antibody, human IgG1, kappa)
heavy: B1 heavy with V266I, A269S, D271E, Y298D, P398M
light: not shown
notes: as for B1
Kd [2]: 94 nM
Kd [3]: 3.2 nM
Kd [1]: 12 nM

B7: IL6R-BP557/IL6R-L (antibody, human IgG1, kappa)
heavy: B1 heavy with D235E, A269G, E270D, D271E, Y298D
light: not shown
notes: as for B1
Kd [2]: 850 nM
Kd [3]: 20 nM

B8: IL6R-BP083/IL6R-L (antibody, human IgG1, kappa)
heavy: B1 heavy with D235E, D239G, A269S, E270H, D271E, G273P, Y298D, R332K
light: not shown
relative binding activity [4]: 50 relative (IL6R-BF648/IL6R-L = 100)
relative binding activity [5]: 122 relative (IL6R-BF648/IL6R-L = 100)

B9: IL6R-BP428/IL6R-L (antibody, human IgG1, kappa)
heavy: B1 heavy with A269G, D271E
light: not shown
notes: as for B1
Kd [2]: 390 nM

B10: IL6R-BP507/IL6R-L (antibody, human IgG1, kappa)
heavy: B1 heavy with V266I, D271E, E274P
light: not shown
notes: as for B1
Kd [2]: 100 nM
Kd [3]: 2.9 nM
Kd [1]: 2.6 nM

B11: IL6R-BP192/IL6R-L (antibody, human IgG1, kappa)
heavy: B1 heavy with D239G, A269S, E270D, D271E, Y298D, R332K
light: not shown
relative binding activity [4]: 109 relative (IL6R-BF648/IL6R-L = 100)
relative binding activity [5]: 172 relative (IL6R-BF648/IL6R-L = 100)

B12: IL6R-BP133/IL6R-L (antibody, human IgG1, kappa)
heavy: B1 heavy with L236Y, D239G, A269S, E270H, D271E, G273P, R332K
light: not shown
relative binding activity [4]: 41 relative (IL6R-BF648/IL6R-L = 100)
relative binding activity [5]: 137 relative (IL6R-BF648/IL6R-L = 100)

B13: IL6R-BP144/IL6R-L (antibody, human IgG1, kappa)
heavy: B1 heavy with D235E, A269S, E270H, D271E, G273P, K328A, R332A
light: not shown
relative binding activity [4]: 64 relative (IL6R-BF648/IL6R-L = 100)
relative binding activity [5]: 121 relative (IL6R-BF648/IL6R-L = 100)

B14: IL6R-BP264/IL6R-L (antibody, human IgG1, kappa)
heavy: B1 heavy with A269S, D271E, Y298D
light: not shown
notes: E233D/G237D/P238D/H268E/P271G/Y296D/A330R (EU numbering) in IL6R-B3
Kd [2]: 350 nM

B15: IL6R-BP268/IL6R-L (antibody, human IgG1, kappa)
heavy: B1 heavy with A269S, D271E, Y298D, R332A
light: not shown
notes: as for B1
Kd [2]: 1800 nM
Kd [3]: 92 nM
Kd [1]: 4.5 nM
KD(IIaR) of the parent polypeptide/KD(IIaR) of the altered polypeptide [6]: 0.6 fold
KD(IIb) of the parent polypeptide/KD(IIb) of the altered polypeptide [7]: 33.7 fold

B16: IL6R-BP552/IL6R-L (antibody, human IgG1, kappa)
heavy: B1 heavy with V266I, D271E, E274D, Y298D
light: not shown
notes: as for B1
Kd [2]: 97 nM
Kd [3]: 2.6 nM
Kd [1]: 3.2 nM

B17: IL6R-BP143/IL6R-L (antibody, human IgG1, kappa)
heavy: B1 heavy with D235E, L236Y, D239G, A269S, E270H, D271E, G273P, K328A, R332A
light: not shown
relative binding activity [4]: 86 relative (IL6R-BF648/IL6R-L = 100)
relative binding activity [5]: 133 relative (IL6R-BF648/IL6R-L = 100)

B18: IL6R-BP262/IL6R-L (antibody, human IgG1, kappa)
heavy: B1 heavy with D235E, A269S, D271E, R332A
light: not shown
notes: as for B1
Kd [2]: 2000 nM
Kd [3]: 120 nM
Kd [1]: 10 nM
KD(IIaR) of the parent polypeptide/KD(IIaR) of the altered polypeptide [6]: 0.5 fold
KD(IIb) of the parent polypeptide/KD(IIb) of the altered polypeptide [7]: 25.8 fold

B19: IL6R-BP086/IL6R-L (antibody, human IgG1, kappa)
heavy: B1 heavy with D235E, D239G, A269S, E270H, D271E, G273P, K328A, R332K
light: not shown
relative binding activity [4]: 72 relative (IL6R-BF648/IL6R-L = 100)
relative binding activity [5]: 137 relative (IL6R-BF648/IL6R-L = 100)

B20: IL6R-BP506/IL6R-L (antibody, human IgG1, kappa)
heavy: B1 heavy with V266I, D271E, E274P, Y298D
light: not shown
notes: as for B1
Kd [2]: 120 nM
Kd [3]: 3.4 nM
Kd [1]: 3.1 nM

Source: patent US20210261648A1 (published 2021)
